Results on 3 substances are retold here after article PMC2596940.

Where two headings read alike, the source gives them in different places.

Take amyloid precursor protein (APP): K595R: the other result (SUMOylation at K595) is listed as “increases”.

Consider “amyloid precursor protein (APP): K587R/K595R”, for which the other entry is on record as “increases” (SUMOylation at K587) and “increases” (SUMOylation at K595).

Regarding amyloid precursor protein (APP): K587R, for the setting “SUMOylation at K587”, the other result is on record as “increases”.
